Laboratory results from the RNAGym collection of RNA variant scans (doi:10.7554/elife.80360).

B1: HDV Ribozyme (parent)
chain: GGCCGGCAUGGUCCCAGCCUCCUCGCUGGCGCCGGCUGGGCAACAUUCCGAGGGGACCGUCCCCUCGGUAAUGGCGAAUGGGACCCA

Variants of: B1
Experiment: self-cleavage, relative activity (ratio to wild type); higher = more cleavage; co-transcriptional

Row | Variant | self-cleavage
1 | A16G G80U | 0.208
2 | G25C C32A | 0.148
3 | C44G G67C | 0.755
4 | C3A C57U | 0.701
5 | C14A C64U | 0.743
6 | U23G G74C | 0.188
7 | C22G G68A | 0.132
8 | C21G C64U | 0.0287
9 | U9G C49G | 0.886
10 | C18U G54U | 0.661
11 | C24U C36G | 0.141
12 | G59A U69G | 1
13 | U23A A87G | 0.816
14 | C15G C57G | 0.692
15 | G17C G59A | 0.231
16 | U23A C58A | 1.12
17 | G50A A77G | 0.743
18 | G5C C21A | 0.0831
19 | U9A C26U | 1.12
20 | G11C U27G | 0.356
21 | G35A G76A | 0.709
22 | C4G A77U | 0.0354
23 | U20C A45U | 0.166
24 | C66U G81C | 0.277

Row | Variant | self-cleavage
25 | C3G G80A | 0.0911
26 | A42U C86G | 0.519
27 | G6U G31C | 0.122
28 | C18U U72G | 0.287
29 | G17C A83U | 0.256
30 | G11U C36A | 0.0755
31 | A42C C75U | 0.148
32 | G38A U79G | 0.151
33 | A51C C63A | 0.475
34 | U12A G50U | 0.767
35 | C3A G31C | 0.0166
36 | G31C A70G | 0.285
37 | G29U | 0.0885
38 | C36A C62G | 0.17
39 | U9A A56G | 0.95
40 | G59A U69A | 1.08
41 | G28C C41A | 0.0573
42 | G11U A56U | 0.391
43 | C18G C61U | 0.0519
44 | U23C A77U | 0.353
45 | G25U G67A | 0.227
46 | G31C C36G | 0
47 | C33G A51U | 0.0811
48 | C24G C48G | 0.0941

Row | Variant | self-cleavage
49 | C13U C32U | 0.584
50 | A8C U27A | 0.867
51 | G50A C66G | 1.05
52 | G5U C41U | 0.415
53 | U46A G59A | 0.78
54 | G67U G73C | 0.437
55 | G34A C48G | 0.119
56 | C33U A78G | 0.228
57 | G50C G68C | 0.249
58 | U37G A45U | 0
59 | A56U G82U | 0.462
60 | C3G C44A | 0.312
61 | G53U C84G | 0.554
62 | C15G A83C | 0.249
63 | G10U C57U | 0.855
64 | C13G C44G | 0
65 | U27G C58U | 0.906
66 | C13U C84U | 0.361
67 | G25A G29A | 0.0567
68 | C24G G53C | 0.0817
69 | C24G C44U | 0.0978
70 | A8U G76A | 0.95
71 | C61G G67C | 0.945
72 | U9G C22U | 0.44

Row | Variant | self-cleavage
73 | C3A C41U | 0.321
74 | G1C A16G | 0.196
75 | G38C G73A | 0.185
76 | G10U C64A | 0.513
77 | U37G A56U | 0.0723
78 | C30G C62G | 0
79 | G2C A16C | 0.0361
80 | A71C G76C | 0.848
81 | G2C C33A | 0.0528
82 | C7A U27C | 0.287
83 | G29C U47A | 0.214
84 | A51C G59U | 0.762
85 | U37A G74U | 0.208
86 | C33U C48A | 0.631
87 | C36G A71U | 0.095
88 | C24A C32A | 0.106
89 | G80U C84G | 0.332
90 | G17C C57U | 0.256
91 | G10C G53C | 1.02
92 | G38C G81C | 0.0354
93 | G29C G40A | 0.0804
94 | C3A C84U | 0.157
95 | C33U G50A | 0.774
96 | C26U U65G | 1.02

Row | Variant | self-cleavage
97 | C62U G73A | 0.808
98 | C63U C84U | 0.726
99 | G10U G34C | 0.189
100 | U65G G80U | 0.261
101 | A16G G74C | 0.435
102 | C26U C57A | 1.22
103 | G11U A77C | 0.0652
104 | C3G G34A | 0.229
105 | A42U G74A | 0.343
106 | A71C G74U | 0.789
107 | C48G C85U | 0.831
108 | C14U A87C | 1.12
109 | C48U G52U | 0.577
110 | C13G G59C | 0.104
111 | C44U A77G | 0.923
112 | C30U C57A | 0.787
113 | G1C G17A | 0.332
114 | G34C A71C | 0.201
115 | G5C G73U | 0.0504
116 | G6C C22G | 0.145
117 | G38A A45U | 0.107
118 | G25U C26G | 0.816
119 | C19U U72G | 0.0396
120 | A42G G53A | 0.496

Row | Variant | self-cleavage
121 | G68C A77C | 0.185
122 | G35U G73A | 0.0911
123 | C30A A78G | 0.309
124 | G11C G28A | 0.0225
125 | G39U A51U | 0.611
126 | G17A G35U | 0.0906
127 | U12C U79G | 0.0791
128 | C24U C84U | 0.53
129 | C66U A71U | 0.936
130 | C44U G76A | 0.87
131 | U23C C62A | 0.762
132 | C21G G80C | 0.177
133 | G11U C19A | 0.0382
134 | C15U C32G | 0.0489
135 | C19A G28U | 0.79
136 | G29C C62U | 0
137 | G34C G52A | 0.17
138 | C32A U79G | 0.133
139 | C19U A70C | 0.0906
140 | C44A G67A | 0.415
141 | C19U A51U | 0.0923
142 | G17C G76A | 0.446
143 | G39U C62G | 0.408
144 | C58A G80A | 0.544

Row | Variant | self-cleavage
145 | U20A A42G | 0
146 | U47C G53C | 0.653
147 | G5C G55C | 0.0898
148 | U12C C63A | 0.268
149 | A8U U12C | 0.227
150 | C4U C18U | 0.323
151 | C33U C41G | 0.372
152 | G11U U12A | 0.116
153 | C19U G53U | 0.215
154 | G5U G50U | 0.795
155 | C33U C66U | 0.774
156 | G39A G40C | 0.459
157 | C15G U72A | 0.0875
158 | G38C G82C | 0.222
159 | C4U C84U | 0.514
160 | C30G G54C | 0.095
161 | C26G A77C | 0.383
162 | C33U C86A | 0.746
163 | U9G C64U | 0.86
164 | C13G C30U | 0.26
165 | G6U C66A | 0.443
166 | A8C G31U | 0.214
167 | C44A C57U | 0.582
